Data from article PMC4358366, “Identification of ‘erasers’ for lysine crotonylated histone marks using a chemical proteomics approach” (eLife, 2014).

Target: T1, Sirt3 F180L (Homo sapiens, UniProt Q9NTG7, F180L)
T1 construct: His tag (from pTrcHis 2C vector; nickel column purification); made in house; host or cells: E. coli Rosetta
T1 sequence (Q9NTG7 102-399 F180L): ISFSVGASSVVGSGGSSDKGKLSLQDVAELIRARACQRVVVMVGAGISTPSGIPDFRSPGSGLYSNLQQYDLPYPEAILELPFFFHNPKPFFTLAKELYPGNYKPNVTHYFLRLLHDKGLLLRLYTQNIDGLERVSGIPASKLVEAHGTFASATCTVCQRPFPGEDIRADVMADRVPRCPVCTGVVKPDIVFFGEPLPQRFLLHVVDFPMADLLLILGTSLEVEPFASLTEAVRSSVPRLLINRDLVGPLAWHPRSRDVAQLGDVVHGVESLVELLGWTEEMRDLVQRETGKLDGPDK
Assay: Steady state kinetics of deacetylation by Sirt3 F180L mutant
Type: biochemical
Details: F180L vs wild-type Sirt3 (H3K4Ac, Figure 4—figure supplement 6)
Experimental: Plasmids of Sirt1 (193–747), Sirt2 (36–356), Sirt5 (34–302), and Sirt6 (1–314) for Escherichia coli expression were generated as previously described ([Finnin et al., 2001]; [Du et al., 2011]; [Hubbard et al., 2013]; [Jiang et al., 2013]). […] Sirt3 mutant F180L was generated by site directed mutagenesis. All of the proteins were expressed in E. coli Rosetta cells. To induce expression of target proteins, isopropyl β-D-1-thiogalactopyranoside was added to a final concentration of 0.2 mM when OD600 reached 0.6, and the culture was grown at 15 °C (Sirt3 at 25 °C) for 16–18 hr. Cells were harvested and resuspended in lysis buffer A (50 mM Tris–HCl, pH 7.5, 500 mM NaCl, 1 mM PMSF, and Roche EDTA free protease inhibitors, for Sirt1, Sirt2, and Sirt6) or buffer B (50 mM Tris–HCl, pH 7.5, 150 mM NaCl, 1 mM PMSF, and Roche EDTA free protease inhibitors, for Sirt3 and Sirt5). […]
Enzyme was incubated with different concentrations of corresponding peptides bearing two tryptophans at the C terminus (20, 40, 60, 80, 100, 200, and 500 μM) and 1.0 mM NAD in 20 mM Tris–HCl buffer (pH 7.5) containing 1 mM DTT in 25 μL reaction at 37°C for a certain period of time within the initial linear range. […] Samples were then analyzed by HPLC with a Vydac 218TP C18 column (4.6 mm×250 mm, 5 μm; Grace Davison). […]

- decrease in deacetylation activity caused by F180L mutation: about a two-fold decrease
B1: Sirt3 F180L: Sirt3 mutant with Phe180 mutated to leucine (protein, UniProt Q9NTG7 1-399, looked up, variant F180L)
chain: MAFWGWRAAAALRLWGRVVERVEAGGGVGPFQACGCRLVLGGRDDVSAGLRGSHGARGEPLDPARPLQRPPRPEVPRAFRRQPRAAAPSFFFSSIKGGRRSISFSVGASSVVGSGGSSDKGKLSLQDVAELIRARACQRVVVMVGAGISTPSGIPDFRSPGSGLYSNLQQYDLPYPEAILELPFFFHNPKPFFTLAKELYPGNYKPNVTHYFLRLLHDKGLLLRLYTQNIDGLERVSGIPASKLVEAHGTFASATCTVCQRPFPGEDIRADVMADRVPRCPVCTGVVKPDIVFFGEPLPQRFLLHVVDFPMADLLLILGTSLEVEPFASLTEAVRSSVPRLLINRDLVGPLAWHPRSRDVAQLGDVVHGVESLVELLGWTEEMRDLVQRETGKLDGPDK
